Results: paper PMC12951562 (2026)
Non-standard residues stand in square brackets, D forms with d. No end group written: not given here. pY = N[C@@H](Cc1ccc(OP(=O)(O)O)cc1)C(=O)O

Experiments:
caffeic acid-pYEEIE = target: T1, caffeic acid-pYEEIE; assay: competition binding assay (SH2scan, qPCR)
T1 chain: {caffeic acid}-[pY]EEIE

Ac-pYEEIE-NH2 = target: T2, Ac-pYEEIE-NH2 (SMILES CC[C@H](C)[C@H](NC(=O)[C@H](CCC(=O)O)NC(=O)[C@H](CCC(=O)O)NC(=O)[C@H](Cc1ccc(OP(=O)(O)O)cc1)NC(C)=O)C(=O)N[C@@H](CCC(=O)O)C(N)=O); assay: competition binding assay (SH2scan, qPCR)
T2 chain: Ac-[pY]EEIE-NH2

B1: FYN SH2 (protein)
chain: AEEWYFGKLGRKDAERQLLSFGNPRGTFLIRESETTKGAYSLSIRDWDDMKGDHVKHYKIRKLDNGGYYITTRAQFETLQQLVQHYSERAAGLCCRLVVPCHKG
In the case of B1, the Kd (caffeic acid-pYEEIE) is reported as 0.00053 µM and the Kd (Ac-pYEEIE-NH2) is reported as 3.3 µM.

B2: PIK3R3 C-terminal SH2 (protein)
chain: WFVEDINRVQAEDLLYGKPDGAFLIRESSKKGCYACSVVADGEVKHCVIYSTARGYGFAEPYNLYSSLKELVLHYQQTSLVQHNDSLNVRLAYPV
Work on B2 yielded a Kd (Ac-pYEEIE-NH2) of 14.9 µM.

B3: FES SH2 (protein)
chain: EQLWYHGAIPRAEVAELLVHSGDFLVRESQGKQEYVLSVLWDGLPRHFIIQSLDNLYRLEGEGFPSIPLLIDHLLSTQQPLTKKSGVVLHRAVPKD
Work on B3 yielded a Kd (Ac-pYEEIE-NH2) of 4.2 µM.

B4: YES SH2 (protein)
chain: AEEWYFGKMGRKDAERLLLNPGNQRGIFLVRESETTKGAYSLSIRDWDEIRGDNVKHYKIRKLDNGGYYITTRAQFDTLQKLVKHYTEHADGLCHKLTTVCPTV
Binder B4 has a Kd (Ac-pYEEIE-NH2) of 3.8 µM.
